Measurements reported in patent publication US20260191981A1 (ARROWHEAD PHARMACEUTICALS, published 2026).

What was measured:
[1] = biological target: T1, cynomolgus monkey transferrin receptor 1 (cTfR1) (cynomolgus monkey, UniProt H9EXL1 89-760 (rhesus entry)); experiment: competition ELISA, Fab
T1 construct: The ELISA against cTfR1 is not described in the text

[2] = biological target: T2, his-tagged cTfR1 (Acro Biosystems p/n TFR-C524a) (cynomolgus monkey, UniProt H9EXL1 89-760 (rhesus entry)); experiment: SPR, Biacore X100, His-tagged TfR1 captured by anti-His
T2 construct: Bought reagent of the SPR assay
Description: Samples were analyzed via Surface Plasmon Resonance (SPR) to determine kinetics against cynomolgus monkey transferrin receptor 1 (cTfR1). Briefly, a Biacore X100 (Cytiva) was used for SPR measurements using a CM5 chip (carboxymethylated dextran surface, Cytiva p/n BR100399) with anti-histidine antibody irreversibly immobilized on the surface of both flow cells for the reversible capture of his-tagged cTfR1 (Acro Biosystems p/n TFR-C524a). The anti-histidine antibody was irreversibly immobilized via amine coupling using Cytiva provided Amine Coupling Kit (p/n BR100050) and His Capture Kit (p/n 28995056). […] Sample diluent was prepared in house and is composed of 10 mM HEPES buffer pH 7.4, 150 mM NaCl, 3 mM EDTA, and 0.05% Tween 20. Cytiva caps and vials compatible for Biacore X₁₀₀ were used for sample analysis. Each analysis cycle consists of a capture step followed by sample or blank injection, and finally a regeneration step that removes any sample and cTfR1 on the sensor surface. The capture step was performed at 5 μL/min with a contact time of 24 seconds over the active flow cell only, followed by a fluidics wash with 0.1% Tween 20. Generally, 2 μg/mL hTfR1 was a sufficient concentration to observe adequate hTfR1 captured consistently between cycles. Sample or buffer was injected at 30 μL/min with a contact time of 180 seconds and dissociation time of 180 seconds followed by a fluidics wash with 0.1% Tween 20. A 10 mM glycine solution at pH 1.5 (provided in His Capture Kit) was used for regeneration at 30 μL/min with a 60 second contact time. A cycle was performed for each sample concentration analyzed along with one cycle repeating one concentration for variability evaluation and 2-3 buffer cycles. Results were analyzed in Biacore Evaluation Software. Buffer cycles were averaged and subtracted from sample injections prior to kinetic fitting. A monovalent or kinetic fit was specified as relevant for the sample analyzed. Accuracy of the fit is evaluated and data points are excluded as applicable.

[3] = biological target: T3, human transferrin receptor 1 (hTfR1) (human, UniProt P02786 89-760, limits assumed); experiment: competition phage ELISA (phage-displayed Fab)
T3 construct: The selections used the biotinylated ECD domain of hTfR1

[4] = biological target: T1, cynomolgus monkey transferrin receptor …; experiment: competition phage ELISA (phage-displayed Fab)
[5] = biological target: T3, human transferrin receptor 1 (hTfR1); experiment: competition ELISA, Fab
[6] = biological target: T4, his-tagged hTfR1 (Acro Biosystems p/n CD1-H5243) (human, UniProt P02786 89-760); experiment: SPR, Biacore X100, His-tagged TfR1 captured by anti-His
T4 construct: Bought reagent of the SPR assay
Description: Samples were analyzed via Surface Plasmon Resonance (SPR) to determine kinetics against human transferrin receptor 1 (hTfR1). Briefly, a Biacore X100 (Cytiva) was used for SPR measurements using a CM5 chip (carboxymethylated dextran surface, Cytiva p/n BR100399) with anti-histidine antibody irreversibly immobilized on the surface of both flow cells for the reversible capture of his-tagged hTfR1 (Acro Biosystems p/n CD1-H5243). The anti-histidine antibody was irreversibly immobilized via amine coupling using Cytiva provided Amine Coupling Kit (p/n BR100050) and His Capture Kit (p/n 28995056). […] Sample diluent was prepared in house and is composed of 10 mM HEPES buffer pH 7.4, 150 mM NaCl, 3 mM EDTA, and 0.05% Tween 20. Cytiva caps and vials compatible for Biacore X100 are used for sample analysis. Each analysis cycle consists of a capture step followed by sample or blank injection, and finally a regeneration step that removes any sample and hTfR1 on the sensor surface. The capture step was performed at 5 μL/min with a contact time of 24 seconds over the active flow cell only, followed by a fluidics wash with 0.1% Tween 20. Generally, 2 μg/mL hTfR1 is a sufficient concentration to observe adequate hTfR1 captured consistently between cycles. Sample or buffer was injected at 30 μL/min with a contact time of 180 seconds and a dissociation time of 180 seconds followed by a fluidics wash with 0.1% Tween 20. A 10 mM glycine solution at pH 1.5 (provided in His Capture Kit) was used for regeneration at 30 μL/min with a 60 second contact time. A cycle was performed for each sample concentration analyzed along with one cycle repeating one concentration for variability evaluation and 2-3 buffer cycles. Results were analyzed in Biacore Evaluation Software. Buffer cycles were averaged and subtracted from sample injections prior to kinetic fitting. A monovalent or kinetic fit was specified as relevant for the sample analyzed. Accuracy of the fit was evaluated and data points are excluded as applicable. […]

[7] = biological target: T5, biotinylated cTfR1 (Acro Bio p/n TFR-C8249) (cynomolgus monkey, UniProt H9EXL1 89-760 (rhesus entry), biotinylated; site not stated); experiment: BLI, Octet RH16, biotinylated TfR1 on streptavidin sensor; Fab-siRNA conjugate
T5 construct: Bought reagent of the BLI assay
Description: Samples were analyzed via Bio-Layer Interferometry (BLI) to determine kinetics against cynomolgus monkey transferrin receptor 1 (cTfR1). Briefly, an Octet RH16 (Sartorius) was used for BLI measurements using streptavidin biosensors (Sartorius p/n 18-5019) to irreversibly immobilize biotinylated cTfR1 (Acro Bio p/n TFR-C8249). […] Sample diluent was prepared in house and is composed of 10 mM PBS pH 7.4 (150 mM NaCl), 0.01% BSA, 0.002% Tween 20, and 0.01% kathon. A 96-well plate was used for analysis, filled with required samples solutions and a row of 10 μg/mL cTfR1 for loading of the streptavidin sensors. For each sample, one well was reserved for a reference sensor control (non-specific binding evaluation with no cTfR1 on surface in highest sample concentration) and a sample reference (buffer only on a cTfR1 loaded sample). One well was also reserved for a second replicate of one of the five concentrations to evaluate sensor and method variability. Eight channels were used for the highest sensitivity offered by the Octet RH16. For each assay performed, the steps were as follows: a sensor check for baseline evaluation of sensor alone in buffer was performed for 30 seconds, followed by loading of the cTfR1 for 60 seconds, then a baseline check for 90 seconds to verify stability of cTfR1 immobilized to sensor surface, then sample association for 180 seconds, and finally sample dissociation for 300 seconds. A shake speed of 1000 was used for all steps. Sample results were analyzed in Octet Analysis software.

[8] = biological target: T6, biotinylated hTfR1 (Acro Bio p/n TFR-H82E5) (human, UniProt P02786 89-760, biotinylated; site not stated); experiment: as above
T6 construct: Bought reagent of the BLI assay
Description: Samples were analyzed via Bio-Layer Interferometry (BLI) to determine kinetics against human transferrin receptor 1 (hTfR1). Briefly, an Octet RH16 (Sartorius) was used for BLI measurements using streptavidin biosensors (Sartorius p/n 18-5019) to irreversibly immobilize biotinylated hTfR1 (Acro Bio p/n TFR-H82E5). […] Sample diluent was prepared in house and is composed of 10 mM PBS pH 7.4 (150 mM NaCl), 0.01% BSA, 0.002% Tween 20, and 0.01% kathon. A 96-well plate was used for analysis, filled with required samples solutions and a row of 10 μg/mL hTfR1 for loading of the streptavidin sensors. For each sample, one well was reserved for a reference sensor control (non-specific binding evaluation with no hTfR1 on surface in highest sample concentration) and a sample reference (buffer only on a hTfR1 loaded sample). One well was also reserved for a second replicate of one of the five concentrations to evaluate sensor and method variability. Eight channels were used for the highest sensitivity offered by the Octet RH16. For each assay performed, the steps were as follows: a sensor check for baseline evaluation of sensor alone in buffer was performed for 30 seconds, followed by loading of the cTfR1 for 60 seconds, then a baseline check for 90 seconds to verify stability of cTfR1 immobilized to sensor surface, then sample association for 180 seconds, and finally sample dissociation for 300 seconds. A shake speed of 1000 was used for all steps. Sample results are analyzed in Octet Analysis software.

T2 sequence (chain, as listed by the source): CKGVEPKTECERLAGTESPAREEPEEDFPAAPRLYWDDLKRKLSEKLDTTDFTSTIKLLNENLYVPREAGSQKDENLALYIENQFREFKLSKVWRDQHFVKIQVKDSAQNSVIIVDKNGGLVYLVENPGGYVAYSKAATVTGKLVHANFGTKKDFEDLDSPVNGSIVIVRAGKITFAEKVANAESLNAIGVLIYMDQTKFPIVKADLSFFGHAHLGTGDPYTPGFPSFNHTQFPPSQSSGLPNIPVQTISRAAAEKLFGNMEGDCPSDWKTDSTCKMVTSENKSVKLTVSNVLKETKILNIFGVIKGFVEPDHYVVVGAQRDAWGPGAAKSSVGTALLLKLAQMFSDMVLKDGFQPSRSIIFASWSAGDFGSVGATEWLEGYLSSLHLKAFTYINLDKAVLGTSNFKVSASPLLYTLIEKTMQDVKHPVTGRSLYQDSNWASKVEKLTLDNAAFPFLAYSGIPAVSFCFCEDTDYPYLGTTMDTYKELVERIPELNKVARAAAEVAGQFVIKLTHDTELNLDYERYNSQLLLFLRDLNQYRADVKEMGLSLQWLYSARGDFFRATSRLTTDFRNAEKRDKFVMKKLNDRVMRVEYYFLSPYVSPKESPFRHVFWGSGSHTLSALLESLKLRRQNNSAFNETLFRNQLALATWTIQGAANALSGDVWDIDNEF
T1 sequence (chain, as listed by the source): as above
T5 sequence (chain, as listed by the source): as above
T3 sequence (P02786 89-760 limits assumed): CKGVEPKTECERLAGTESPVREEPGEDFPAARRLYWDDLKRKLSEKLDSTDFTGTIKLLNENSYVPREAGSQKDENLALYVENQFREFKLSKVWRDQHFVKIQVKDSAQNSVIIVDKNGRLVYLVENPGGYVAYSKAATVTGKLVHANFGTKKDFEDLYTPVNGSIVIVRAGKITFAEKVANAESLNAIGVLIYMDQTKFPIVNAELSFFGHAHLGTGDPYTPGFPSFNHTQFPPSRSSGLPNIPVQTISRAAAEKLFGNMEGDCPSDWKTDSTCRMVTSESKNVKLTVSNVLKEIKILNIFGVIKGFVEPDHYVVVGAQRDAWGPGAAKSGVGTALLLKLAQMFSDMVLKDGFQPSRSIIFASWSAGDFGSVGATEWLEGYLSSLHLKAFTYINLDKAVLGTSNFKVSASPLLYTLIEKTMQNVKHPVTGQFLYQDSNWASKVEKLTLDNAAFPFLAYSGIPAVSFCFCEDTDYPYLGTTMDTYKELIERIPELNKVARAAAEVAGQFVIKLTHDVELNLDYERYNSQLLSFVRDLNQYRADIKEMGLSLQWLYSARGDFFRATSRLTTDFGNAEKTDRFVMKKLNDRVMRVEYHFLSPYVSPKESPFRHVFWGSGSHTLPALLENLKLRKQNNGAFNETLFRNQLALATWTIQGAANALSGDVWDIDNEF
T6 sequence (P02786 89-760 limits assumed): as above
T4 sequence (P02786 89-760 limits assumed): as above

Binder	Kd [1] [nM]	Kd [2] [nM]	koff [2] [s⁻¹]	kon [2] [M⁻¹ s⁻¹]	Kd [3] [nM]	Kd [4] [nM]	Kd [5] [nM]	Kd [6] [nM]	koff [6] [s⁻¹]	kon [6] [M⁻¹ s⁻¹]	Kd [7] [nM]	koff [7] [s⁻¹]	kon [7] [M⁻¹ s⁻¹]	Kd [8] [nM]	koff [8] [s⁻¹]	kon [8] [M⁻¹ s⁻¹]
Fab0061 (Fab, V domains shown) VH: EVQLVESGGGLVQPGGSLRLSCATSGYTFTSYWMHWVRQAPGKGLEWVAEINPTNGRVNYIEKFKSRITLSVDKSKSTVYLQMNSLRAEDTAVYYCARGTRAYHYWGQGTLVTVSS VL: DIQLTQSPSSLSASVGDRVTITCRASDGLYSNLAWYQQKPGKAPKLLIYDATKLASGVPSRFSGSGSGTDYTLTISSLQPEDFATYYCQHFWGTPLTFGQGTKVEIKR	5.15	1.75	0.0037	2.11e+06	0.49	1.75	0.95	0.708	0.00101	1.42e+06						
Fab0002-siRNA conjugate (Fab, V domains shown, siRNA-linker on a reduced cysteine; chain and residue not stated, also called Fab0002 (BLI conjugate columns)) VH: EVQLVQSGAEVKKPGASVKVSCKASGYTFTSYWMHWVRQAPGQRLEWIGEINPTNGRTNYIEKFKSRATLTVDKSASTAYMELSSLRSEDTAVYYCARGTRAYHYWGQGTMVTVSS VL: DIQMTQSPSSLSASVGDRVTITCRASDNLYSNLAWYQQKPGKSPKLLVYDATNLADGVPSRFSGSGSGTDYTLTISSLQPEDFATYYCQHFWGTPLTFGQGTKVEIKR											25.1	0.00732	292000	16.7	0.00349	209000
Fab0062 (Fab, V domains shown) VH: EVQLVESGGGLVQPGGSLRLSCATSGYTFTSYWMHWVRQAPGKGLEWVAEINPTNGRVNYIEKFKSRITLSVDKSKSTVYLQMNSLRAEDTAVYYCARGTRAYHYWGQGTLVTVSS VL: DIQLTQSPSSLSASVGDRVTITCRASDGLYSNLAWYQQKPGKAPKLLIYDAFNLASGVPSRFSGSGSGTDYTLTISSLQPEDFATYYCQHFWGTPLTFGQGTKVEIKR	9.14	3.22	0.00515	1.6e+06	0.65	3.48	1.1	0.993	0.00117	1.18e+06						
Fab0060 (Fab, V domains shown) VH: EVQLVESGGGLVQPGGSLRLSCATSGYTFTSYWVHWVRQAPGKGLEWVAEINPTNGRTNYIEKFKSRITLSVDKSKSTVYLQMNSLRAEDTAVYYCARGTRAYHYWGQGTLVTVSS VL: DIQLTQSPSSLSASVGDRVTITCRASDGLYSNLAWYQQKPGKAPKLLIYDATKLASGVPSRFSGSGSGTDYTLTISSLQPEDFATYYCQHFWGTPLTFGQGTKVEIKR	4.58	2.71	0.00357	1.32e+06	0.49	1.56	0.81	0.907	0.00111	1.22e+06						

Continued, values first:

Kd [1] [nM]	Kd [2] [nM]	koff [2] [s⁻¹]	kon [2] [M⁻¹ s⁻¹]	Kd [3] [nM]	Kd [4] [nM]	Kd [5] [nM]	Kd [6] [nM]	koff [6] [s⁻¹]	kon [6] [M⁻¹ s⁻¹]	Kd [7] [nM]	koff [7] [s⁻¹]	kon [7] [M⁻¹ s⁻¹]	Kd [8] [nM]	koff [8] [s⁻¹]	kon [8] [M⁻¹ s⁻¹]	Binder
5.57	2.72	0.00446	1.64e+06	0.48	2.63	0.67	0.598	0.00105	1.75e+06							Fab0063 (Fab, V domains shown) VH: EVQLVESGGGLVQPGGSLRLSCATSGYTFTSYWMHWVRQAPGKGLEWVAEINPTNGRVNYIEKFKSRITLSVDKSKSTVYLQMNSLRAEDTAVYYCARGTRAYHYWGQGTLVTVSS VL: DIQLTQSPSSLSASVGDRVTITCRASDGLYSNLAWYQQKPGKAPKLLIYDATRLASGVPSRFSGSGSGTDYTLTISSLQPEDFATYYCQHFWGTPLTFGQGTKVEIKR
5.04	2.45	0.00367	1.5e+06	0.34	2.02	0.67	0.754	0.00111	1.47e+06							Fab0064 (Fab, V domains shown) VH: EVQLVESGGGLVQPGGSLRLSCATSGYTFTSYWMHWVRQAPGKGLEWVAEINPTNGRVNYIEKFKSRITLSVDKSKSTVYLQMNSLRAEDTAVYYCARGTRAYHYWGQGTLVTVSS VL: DIQLTQSPSSLSASVGDRVTITCRASDGLYSNLAWYQQKPGKAPKLLIYDAKNLASGVPSRFSGSGSGTDYTLTISSLQPEDFATYYCQHFWGTPLTFGQGTKVEIKR
										12.2	0.00321	264000	2.78	0.000793	286000	Fab0074-siRNA conjugate (Fab, V domains shown, siRNA-linker on a reduced cysteine; chain and residue not stated, also called Fab0074 (BLI conjugate columns)) VH: EVQLVESGGGLVQPGGSLRLSCATSGYTFKSYWMHWVRQAPGKGLEWVAEINPTNGRTNYIEKFKSRITLSVDKSKSTVYLQMNSLRAEDTAVYYCARGTRAYHYWGQGTLVTVSS VL: DIQLTQSPSSLSASVGDRVTITCRASDGLYSNLAWYQQKPGKAPKLLIYDAKNLASGVPSRFSGSGSGTDYTLTISSLQPEDFATYYCQHFWGTPLTFGQGTKVEIKR
